Data from PMC9109717.

Substrate: Nc1ncnc2c1ncn2[C@@H]1O[C@H](CO)[C@H]2OP(=O)(O)O[C@H]21
Experiment: purified protein
Type: biochemical, Thermobifida fusca
Conditions: pH 7.5

B1: (Thermobifida fusca YX) (protein)
chain: MPEHDSTDDKHGIPPLDLRFWAKERGLRGKTYPLVCHSLDAAAAALVLWNEYLSPGLRDTIASSMETDEEHAGHCIAFWAGLHDIGKLTREFQQQIAIDLSAYPGEELSGEQRSHAAATGKWLPFALPSLGYPNGGLVTGLVAQMLGGHHGTFHPHPSFQSRNPLAEFGFSSPHWEKQRHALLHAVFDATGRPTPPDMLDGPTASVVCGLVILADWLVSQEDFLLERLTSLPADGSASALRAHFETSLRRIPSLLDAAGLRPITVPPATFTESFPHLSKPNGLQASLAKHLPCLCTGPGLVLITAPMGEGKTEAAYHVADLLGKATGRPGRFLALPTMATADQMHTRLKEYARYRVENTDLPRSSTLALLHSMAWLNPDYAPADLPGVSKVLSNLGHRDPFAATDWLMGRKRGLLAPWAVGTIDQALMAVLRAKHNALRLFGLAGKVVVVDEAHAVDPYMQVLLEQLLRWLGTLDVPVVLLSATLHHSIANSLVKAYLEGARGRRWNRSEPQPVSEVSYPGWLHVDARIGKVTRSSDVDPLPIATTPRKPLEVRLVDVPVKEGALNRSTVLAKELTPLVKQGGCAAIICTTVAEAQGVYDLLSQWFATLGEDAPDLYLLHSRFPNRQRTEITATIVDLFGKEGAQSGRRPTRGAVLVATQVVEQSLDLDVDLMISDLAPVSLLLQRAGRCWRHEHLGIINRPQWAKQPELVVLTPEQNGDADRAPWFPRSWTSVYPLALLQRTYTLLRRRNGAPVQIPEDVQQLVDDVYDDDSLAEDLEADMERMGEELAQRGLARNAVIPDPDDAEDNLNGLTEFSFDVDEHVLATRFGAGSVRVLCYYVDTAGNRWLDPECTVEFPEQGTGREGRFTMADCRDLVARTIPVRMGPWASQLTEDNHPPEAWRESFYLRDLVLIPQRVTDEGAVLPTETGGREWLLDPCKGLIF
Question: For B1, which Km is on record?
Answer: Its Km is 27 (±6) mM.
